Results: the supplement of paper PMC12764529
± gives the half width of the 95% confidence interval.

experiment: folding stability dG unfold from trypsin proteolysis; higher = more stable
Outline: (§1)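 Designed mini-proteins (under 80 residues, no cysteine) in a PA-tagged cDNA display construct were digested with trypsin and chymotrypsin. Each protease was used at 11 concentrations (threefold dilutions) plus a no-protease condition, followed by sequencing. K50 was inferred by Bayesian fitting of sequencing counts, and unfolding free energy was derived against a sequence-predicted unfolded-state K50 and a shared folded-state K50, per protease or combined. Only designs with AlphaFold2 dimer inter-PAE above 15 were kept.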

| Sequence | folding stability dG unfold |
| --- | --- |
| SAGGSAGGSMLEEKIKQVPKSEKATITIKVKNENGKWKVVTVEVTYIEGKNEYEVKITITPEPGSAGGSAGG [r6_545_JUSTAS] | 1.73 ± 0.2 kcal/mol |
| SAGGMKIGVLLPKSIPPEKAEEFLKKLNPDLEVEYRPVEPGSLKDIPPEIEVIVLPADDDFALALVKPSAGG [r13_649_TrMRF] | 0.323 ± 0.044 kcal/mol |
| SAGGSEAIKEALELAKENPGKTVEVEIKNEDGSIYKIKIEVKEGKVVKVEVEKVKKEEVLSEEEKKSAGGSA [r2_263_TrROS_Hall] | 1.01 ± 0.1 kcal/mol |
| KRVTIMFNFPPGKPLPLSELAGFARNSGGEVKIQIYNPDDGKWQEITFPGGKIDDVEMFPDGWMVMITVKGS [r1_238_TrROS] | 2.09 ± 0.061 kcal/mol |
| SAGGAVYRNPATGEWYEPGMTEEEREARARAALPPPTVTITVTVTVVFEDNGTTVTATATVTLTVEGSAGGS [r16_387_TrROS_Hall] | 2.97 ± 0.11 kcal/mol |
| SAGGTLKVTEEEVSESEFESPGLPLRRTTTTYTLVDPVTGKPVPTSKKVTVETLETPEGRVLETVVTSSAGG [r13_24_JUSTAS] | -0.45 ± 0.24 kcal/mol |
| SAGGSAGGSAGSSLPVLETREEGDLVYLLFPETNLLLVVRRGPGEVEVPSAVRVPPDVPLSAGGSAGGSAGG [r17_30_JUSTAS] | 0.805 ± 0.022 kcal/mol |
| SAGGSAGGSDPTAPVITTVPFPSGAVLTITTYPDSVTITYPSPGTTYTVPASAPIPITYQPALSAGGSAGGS [r12_227_JUSTAS] | 0.674 ± 0.015 kcal/mol |
| SAGTIRLNGLELEVDIEWWPEHGYITINVTITWPNGRTMMMQIIIKVKPVKPPPPPPPKYDPDNGKPKASAG [r5_816_TrROS] | 2.97 ± 0.1 kcal/mol |
| SAGGSAGGSAGPSDDVKPYEVEAEFLIPGTGERVRVRAEVYTLDEEKGLALVRVEVEPVLSAGGSAGGSAGG [r11_1029_TrMRF] | 1.54 ± 0.07 kcal/mol |
| SAGGATIEIKELGRDEDTWYFLVTDPGSAEAVKDFIEKFIPPDYDAKIKILSVDPETGKVTALIEIPGSAGG [r13_491_TrMRF] | 2.23 ± 0.11 kcal/mol |

experiment: folding stability dG unfold from chymotrypsin proteolysis; higher = more stable
Outline: as §1

| Sequence | folding stability dG unfold |
| --- | --- |
| SAGGMKLKPVKEGEEIEIELEIVDKETKKVYKVKAKITVVKDKETKEYYVKIEIENPETGEKYTFLLKSAGG [r13_262_TrROS_Hall] | 2.34 ± 0.12 kcal/mol |
| SAGGKLIIVIEVNGETIEVDLEEAETLEEAIQKVLDEIRERFPEIGTVRIKVFDEKGKLIKEIEIKLKSAGG [r13_257_TrROS_Hall] | 3.6 ± 0.18 kcal/mol |
| MVITPEEVAEMLGVSPEELAALPLEELAQRILEVLPAGVATSVTVERDPARGTTTITVTLSDGKNIDVTLES [r1_340_JUSTAS] | 4.61 ± 0.47 kcal/mol |
| SAGGSAKTVSIWIPDDLPNMPIEELIKEVMKAFPPGDEIKDIDVEPWPNGGYMYTFTVNGKEVIIWSAGGSA [r15_451_TrROS] | 1.93 ± 0.1 kcal/mol |
| SAGGSAGGSMKKIKIEVYNKDGSKTELPLSEILKLYDFDAEEIKKFLEKLFPKDVKFKIEIEGSAGGSAGGS [r12_399_TrMRF] | 2.53 ± 0.05 kcal/mol |
| SAGGSAGGSLKPGQPYIMIRIKIQHPNGNTRTFNIMVPWNDIPQILDFLESHGFKIKDIEIFPSAGGSAGGS [r12_986_TrROS] | 5.42 ± 0.17 kcal/mol |
| SAGGSAGGSAGGKDPYLALKTVRVRLVRDYLLGDKPVKTELIEEADVPVLIVFEPEELLSAGGSAGGSAGGS [r10_492_TrMRF] | 0.536 ± 0.086 kcal/mol |
| SAGGEVKPGEEVEVEVLVLVRGEDGELYLVRVKMRFRVKEDGTVEMEVEVEVVRVPLSEEELKALLEASAGG [r13_544_TrROS_Hall] | 5.99 ± 0.26 kcal/mol |
| SAGGYKITIPAMFDTPEDALDQVREIARSLGYRITDIKNVEVHKHEDNGMVMVEATIKIEPLPKGQLSAGGS [r16_155_TrROS] | 2.07 ± 0.074 kcal/mol |
| SMPLPFEATVTVPVRDEETGETYTVTVKVEAVNPAVPRPLPDGSIEYEPIPLETVLEIVEKAAEELAKALSA [r9_698_TrMRF] | 1.55 ± 0.058 kcal/mol |
| SAGGLKEIAKQLGPGADKVEIEWEPQPHDDMEMYRWKIRVKNPNNGKKRKLEVSIMYDPNGNIRSIMISAGG [r13_358_TrROS] | 2.38 ± 0.077 kcal/mol |
| SAGGSAGGSAHKITITLPNGNPPEIVVEFETEEEAKEKAEEIIKKLEEEGYPKENLTVTIEKESAGGSAGGS [r12_295_JUSTAS] | 1.76 ± 0.087 kcal/mol |
| SAGGMETIELEIEITDEDGNTYRIRVTIERKDGKLVIKIEVEAETPEERERARELAEELARRLEEELSAGGS [r8_416_TrROS_Hall] | 5.3 ± 0.35 kcal/mol |
| SAGGSAGGSAGGSMSSTVTTTLVEVGPPNGKRVLVRRTTTTFPDGSVTTTVTVLSTTIASAGGSAGGSAGGS [r4_496_JUSTAS] | 2.61 ± 0.033 kcal/mol |
| SAGGSAGGNKSYTVIIRFPMKRKEDPDGEDKKPRPVTIEYTVKSPEDANELKNKLKDNGAEIVPSAGGSAGG [r6_141_TrROS] | 0.698 ± 0.12 kcal/mol |
| SAGGSAGGSSKNGKPKPTIKVEMPDKPGPHEIPIPESDPDEAKTLAEELAQKWPGVPVRIEPTSAGGSAGGS [r12_601_TrROS] | 0.989 ± 0.057 kcal/mol |
| SAGGPGFQRYPYTLELPDGRKITVEYWRMGDNPYVQIDIRHDGEPLGTIHVPVPSPDQIEDAAKDIISAGGS [r16_55_TrROS] | 1.78 ± 0.054 kcal/mol |
| SAGGPLTLEFTLPNGDEVGDVTVEPLPDDSYIVTVVAEDKDRPGVYYVSLVRIPPTDRTLEVVSGPVYSAGG [r13_370_TrMRF] | 1.24 ± 0.12 kcal/mol |
| SAGKVKLTIMIHPMRKNGKPRYYVMVKIEIPGGPKAEIMFPFDSPEQAKNLLEDLGLKVEPEDISIMRWSAG [r5_233_TrROS] | 1.94 ± 0.12 kcal/mol |
| SAGGSAGGIKEILKEARENPENAESVTIRIPMEVPVTRYDPDNGEPETHPHPVPGEITIPPDDLSAGGSAGG [r6_560_TrROS] | 1.16 ± 0.043 kcal/mol |
| SMKVYVKVLPPEYAVAYIYTDKKYEIPIPTTDLEEARAQIEEIVNEIEKRTGVKAEVEITEVAPDTKIPLSA [r9_786_JUSTAS] | 0.928 ± 0.13 kcal/mol |
